From patent publication US5834244
Residue numbers refer to the chain shown, from its start.

B1: IV-32B (designed binder)
chain: VREVCSEQAEPGPCKALMKRWYFDVTEGKCAPFYYGGCYGNRNNFDTEEYCAAVCGSA
B2: IV-49C (designed binder)
chain: B1 chain with K15R, Y34I
B3: IV-54C (designed binder)
chain: B1 chain with K15R, Y34V

Target: rabbit TF-FVIIa in the PT assay (rabbit thromboplastin with rabbit plasma) (rabbit)

Binder | fold increase of clotting time over baseline, PT assay in rabbit plasma (fold increase over baseline at 50 µM)
B1 | 1.2
B2 | 4.4
B3 | 3.5
